B1: Inhibitor of nuclear factor kappa-B kinase subunit epsilon (Homo sapiens), Q14164 (parent)
chain: MQSTANYLWHTDDLLGQGATASVYKARNKKSGELVAVKVFNTTSYLRPREVQVREFEVLRKLNHQNIVKLFAVEETGGSRQKVLVMEYCSSGSLLSVLESPENAFGLPEDEFLVVLRCVVAGMNHLRENGIVHRDIKPGNIMRLVGEEGQSIYKLTDFGAARELDDDEKFVSVYGTEEYLHPDMYERAVLRKPQQKAFGVTVDLWSIGVTLYHAATGSLPFIPFGGPRRNKEIMYRITTEKPAGAIAGAQRRENGPLEWSYTLPITCQLSLGLQSQLVPILANILEVEQAKCWGFDQFFAETSDILQRVVVHVFSLSQAVLHHIYIHAHNTIAIFQEAVHKQTSVAPRHQEYLFEGHLCVLEPSVSAQHIAHTTASSPLTLFSTAIPKGLAFRDPALDVPKFVPKVDLQADYNTAKGVLGAGYQALRLARALLDGQELMFRGLHWVMEVLQATCRRTLEVARTSLLYLSSSLGTERFSSVAGTPEIQELKAAAELRSRLRTLAEVLSRCSQNITETQESLSSLNRELVKSRDQVHEDRSIQQIQCCLDKMNFIYKQFKKSRMRPGLGYNEEQIHKLDKVNFSHLAKRLLQVFQEECVQKYQASLVTHGKRMRVVHETRNHLRLVGCSVAACNTEAQGVQESLSKLLEELSHQLLQDRAKGAQASPPPIAPYPSPTRKDLLLHMQELCEGMKLLASDLLDNNRIIERLNRVPAPPDV
partner: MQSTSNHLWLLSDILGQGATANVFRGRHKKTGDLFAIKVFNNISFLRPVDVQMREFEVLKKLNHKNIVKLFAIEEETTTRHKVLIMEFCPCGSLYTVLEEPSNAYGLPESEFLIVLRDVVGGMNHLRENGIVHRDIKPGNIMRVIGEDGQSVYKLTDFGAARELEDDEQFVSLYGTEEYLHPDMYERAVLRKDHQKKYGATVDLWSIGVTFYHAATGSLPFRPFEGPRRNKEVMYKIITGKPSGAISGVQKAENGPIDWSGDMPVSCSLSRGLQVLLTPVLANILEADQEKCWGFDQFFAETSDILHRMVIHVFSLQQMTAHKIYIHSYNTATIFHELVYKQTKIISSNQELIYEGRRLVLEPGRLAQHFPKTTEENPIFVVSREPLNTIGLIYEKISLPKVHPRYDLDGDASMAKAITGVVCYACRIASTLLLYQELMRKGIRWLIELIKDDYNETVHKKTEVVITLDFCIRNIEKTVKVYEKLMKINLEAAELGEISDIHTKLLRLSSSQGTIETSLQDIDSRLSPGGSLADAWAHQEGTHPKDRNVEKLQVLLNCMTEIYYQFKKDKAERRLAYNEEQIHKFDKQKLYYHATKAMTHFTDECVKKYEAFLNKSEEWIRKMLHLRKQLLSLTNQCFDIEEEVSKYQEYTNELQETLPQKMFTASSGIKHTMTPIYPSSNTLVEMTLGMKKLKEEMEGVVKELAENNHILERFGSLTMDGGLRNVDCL
B2: Serine/threonine-protein kinase TBK1 (Homo sapiens), Q9UHD2 (parent)
chain: B1 partner
partner: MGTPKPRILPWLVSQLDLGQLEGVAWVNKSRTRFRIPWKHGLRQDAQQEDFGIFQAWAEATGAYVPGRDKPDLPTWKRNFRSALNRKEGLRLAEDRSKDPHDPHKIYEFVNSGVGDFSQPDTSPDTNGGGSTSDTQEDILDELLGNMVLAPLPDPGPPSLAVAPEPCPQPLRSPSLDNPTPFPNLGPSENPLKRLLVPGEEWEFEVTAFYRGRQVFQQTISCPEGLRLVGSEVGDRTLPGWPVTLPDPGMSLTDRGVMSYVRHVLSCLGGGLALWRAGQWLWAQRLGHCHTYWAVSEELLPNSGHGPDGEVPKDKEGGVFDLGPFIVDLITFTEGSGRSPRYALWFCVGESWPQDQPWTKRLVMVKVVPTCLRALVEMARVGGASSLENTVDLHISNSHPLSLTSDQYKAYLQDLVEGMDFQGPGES

Variants of: B1
Details: with tbk1_human TBK1, Q9UHD2

| effect of a mutation on the interaction | Variant |
| --- | --- |
| increasing interaction | L353A |
| increasing interaction | F354A |

Variants of: B2
Details: with irf3_human IRF3, Q14653

| effect of a mutation on the interaction | Variant |
| --- | --- |
| disrupting interaction | I353A |
| disrupting interaction | L352A |

Source: IntAct's records for PubMed 17599067
